We go through 15 molecules from US20240238445A1, “INHIBITORS AND USES THEREOF” (NEURACLE SCIENCE CO., LTD., priority 2021, published 2024).

B1: LRRC4B (453-713): FLAG-tagged LRRC4B deletion construct, amino acids 453-713 of SEQ ID NO: 2 (protein)
chain: VSAVDPVAAGGTGSGGGGPGGSGGVGGGSGGYTYFTTVTVETLETQPGEEALQPRGTEKEPPGPTTDGVWGGGRPGDAAGPASSSTTAPAPRSSRPTEKAFTVPITDVTENALKDLDDVMKTTKIIIGCFVAITFMAAVMLVAFYKLRKQHQLHKHHGPTRTVEIINVEDELPAASAVSVAAAAAVASGGGVGGDSHLALPALERDHLNHHHYVAAAFKAHYSSNPSGGGCGGKGPPGLNSIHEPLLFKSGSKENVQETQI
modifications: FLAG tag
B2: LRRC4B (364-713): FLAG-tagged LRRC4B deletion construct, amino acids 364-713 of SEQ ID NO: 2 (protein)
chain: PVIVEPPTDLNVTEGMAAELKCRTGTSMTSVNWLTPNGTLMTHGSYRVRISVLHDGTLNFTNVTVQDTGQYTCMVTNSAGNTTASATLNVSAVDPVAAGGTGSGGGGPGGSGGVGGGSGGYTYFTTVTVETLETQPGEEALQPRGTEKEPPGPTTDGVWGGGRPGDAAGPASSSTTAPAPRSSRPTEKAFTVPITDVTENALKDLDDVMKTTKIIIGCFVAITFMAAVMLVAFYKLRKQHQLHKHHGPTRTVEIINVEDELPAASAVSVAAAAAVASGGGVGGDSHLALPALERDHLNHHHYVAAAFKAHYSSNPSGGGCGGKGPPGLNSIHEPLLFKSGSKENVQETQI
modifications: FLAG tag
B3: LRRC4B (36-713): FLAG-tagged LRRC4B deletion construct, amino acids 36-713 of SEQ ID NO: 2 (protein)
chain: AGGGGVAVTSAAGGGSPPATSCPVACSCSNQASRVICTRRDLAEVPASIPVNTRYLNLQENGIQVIRTDTFKHLRHLEILQLSKNLVRKIEVGAFNGLPSLNTLELFDNRLTTVPTQAFEYLSKLRELWLRNNPIESIPSYAFNRVPSLRRLDLGELKRLEYISEAAFEGLVNLRYLNLGMCNLKDIPNLTALVRLEELELSGNRLDLIRPGSFQGLTSLRKLWLMHAQVATIERNAFDDLKSLEELNLSHNNLMSLPHDLFTPLHRLERVHLNHNPWHCNCDVLWLSWWLKETVPSNTTCCARCHAPAGLKGRYIGELDQSHFTCYAPVIVEPPTDLNVTEGMAAELKCRTGTSMTSVNWLTPNGTLMTHGSYRVRISVLHDGTLNFTNVTVQDTGQYTCMVTNSAGNTTASATLNVSAVDPVAAGGTGSGGGGPGGSGGVGGGSGGYTYFTTVTVETLETQPGEEALQPRGTEKEPPGPTTDGVWGGGRPGDAAGPASSSTTAPAPRSSRPTEKAFTVPITDVTENALKDLDDVMKTTKIIIGCFVAITFMAAVMLVAFYKLRKQHQLHKHHGPTRTVEIINVEDELPAASAVSVAAAAAVASGGGVGGDSHLALPALERDHLNHHHYVAAAFKAHYSSNPSGGGCGGKGPPGLNSIHEPLLFKSGSKENVQETQI
modifications: FLAG tag
B4: LRRC4B (230-713): FLAG-tagged LRRC4B deletion construct, amino acids 230-713 of SEQ ID NO: 2 (protein)
chain: RLEELELSGNRLDLIRPGSFQGLTSLRKLWLMHAQVATIERNAFDDLKSLEELNLSHNNLMSLPHDLFTPLHRLERVHLNHNPWHCNCDVLWLSWWLKETVPSNTTCCARCHAPAGLKGRYIGELDQSHFTCYAPVIVEPPTDLNVTEGMAAELKCRTGTSMTSVNWLTPNGTLMTHGSYRVRISVLHDGTLNFTNVTVQDTGQYTCMVTNSAGNTTASATLNVSAVDPVAAGGTGSGGGGPGGSGGVGGGSGGYTYFTTVTVETLETQPGEEALQPRGTEKEPPGPTTDGVWGGGRPGDAAGPASSSTTAPAPRSSRPTEKAFTVPITDVTENALKDLDDVMKTTKIIIGCFVAITFMAAVMLVAFYKLRKQHQLHKHHGPTRTVEIINVEDELPAASAVSVAAAAAVASGGGVGGDSHLALPALERDHLNHHHYVAAAFKAHYSSNPSGGGCGGKGPPGLNSIHEPLLFKSGSKENVQETQI
modifications: FLAG tag
B5: LRRC4B (364-576): FLAG-tagged LRRC4B deletion construct, amino acids 364-576 of SEQ ID NO: 2 (protein)
chain: PVIVEPPTDLNVTEGMAAELKCRTGTSMTSVNWLTPNGTLMTHGSYRVRISVLHDGTLNFTNVTVQDTGQYTCMVTNSAGNTTASATLNVSAVDPVAAGGTGSGGGGPGGSGGVGGGSGGYTYFTTVTVETLETQPGEEALQPRGTEKEPPGPTTDGVWGGGRPGDAAGPASSSTTAPAPRSSRPTEKAFTVPITDVTENALKDLDDVMKTTK
modifications: FLAG tag
B6: LRRC4B (157-713): FLAG-tagged LRRC4B deletion construct, amino acids 157-713 of SEQ ID NO: 2 (protein)
chain: LSKLRELWLRNNPIESIPSYAFNRVPSLRRLDLGELKRLEYISEAAFEGLVNLRYLNLGMCNLKDIPNLTALVRLEELELSGNRLDLIRPGSFQGLTSLRKLWLMHAQVATIERNAFDDLKSLEELNLSHNNLMSLPHDLFTPLHRLERVHLNHNPWHCNCDVLWLSWWLKETVPSNTTCCARCHAPAGLKGRYIGELDQSHFTCYAPVIVEPPTDLNVTEGMAAELKCRTGTSMTSVNWLTPNGTLMTHGSYRVRISVLHDGTLNFTNVTVQDTGQYTCMVTNSAGNTTASATLNVSAVDPVAAGGTGSGGGGPGGSGGVGGGSGGYTYFTTVTVETLETQPGEEALQPRGTEKEPPGPTTDGVWGGGRPGDAAGPASSSTTAPAPRSSRPTEKAFTVPITDVTENALKDLDDVMKTTKIIIGCFVAITFMAAVMLVAFYKLRKQHQLHKHHGPTRTVEIINVEDELPAASAVSVAAAAAVASGGGVGGDSHLALPALERDHLNHHHYVAAAFKAHYSSNPSGGGCGGKGPPGLNSIHEPLLFKSGSKENVQETQI
modifications: FLAG tag
B7: FB-20[A11] (peptide)
peptide: GYTYFTTVTVEALETQPGEE
B8: FB-20[A8] (peptide)
peptide: GYTYFTTVAVETLETQPGEE
B9: FB-20[A5] (peptide)
peptide: GYTYFATVTVETLETQPGEE
B10: FB-20[A9] (peptide)
peptide: GYTYFTTVTAETLETQPGEE
B11: FB-20[A13] (peptide)
peptide: GYTYFTTVTVETLATQPGEE
B12: FB-20[A12] (peptide)
peptide: GYTYFTTVTVETAETQPGEE
B13: FB-20[A10] (peptide)
peptide: GYTYFTTVTVATLETQPGEE
B14: FB-20[A6] (peptide)
peptide: GYTYFTAVTVETLETQPGEE
B15: FB-20[A7] (peptide)
peptide: GYTYFTTATVETLETQPGEE

In one test the target is T1, FAM19A5 protein (Homo sapiens, UniProt Q7Z5A7). As to the kind of experiment: Co-immunoprecipitation of FLAG-tagged LRRC4 family deletion constructs/fragments with recombinant FAM19A5 in HEK293 cells. In kind it is binding. The note with it: HEK293 cells expressing FLAG-tagged construct, recombinant FAM19A5 1 μM 30 minutes; IP anti-FLAG, blot anti-FAM19A5 (3-2). On the procedure:
To understand the interaction between FAM19A5 and members of the LRRC4 protein family, HEK293 cells were modified to express a FLAG-tagged member of the LRRC4 protein family, i.e., LRRC4C protein, LRRC4 protein, or LRRC4B protein. Then, the HEK293 cells or primary cortical neurons were treated with recombinant FAM19A5 protein (1 μM) for 30 minutes, and the binding between FAM19A5 protein and the different members of the LRRC4 protein family was assessed using both co-immunoprecipitation and immunofluorescence assays.
For the co-immunoprecipitation assay, cell lysates from the different FAM19A5-treated HEK293 cells were collected and immunoprecipitated with an anti-FLAG antibody, anti-FAM19A5 (1-65) antibody, or a human IgG antibody (control). Immunoprecipitated proteins were immunoblotted with anti-FLAG and anti-FAM19A5 (3-2) antibodies. For the immunofluorescence assay, the HEK293 cells treated with the recombinant FAM19A5 protein were immunostained with anti-FAM19A5 (3-2) (to detect FAM19A5 protein expression) and anti-FLAG antibodies (to detect member of the LRRC4 protein family). The primary cortical neurons treated with the recombinant FAM19A5 protein were immunostained with anti-FAM19A5 (3-2) and anti-LRRC4B antibodies. The nuclei were stained with Hoechst33342 (blue).
To determine the specific motif or domain of the LRRC4B protein that is responsible for the binding to a FAM19A5 protein, various FLAG-tagged LRRC4B deletion constructs were generated (see Table 6 below). HEK293 cells were transfected with the different deletion constructs and then treated with recombinant FAM19A5 protein as described in Example 1. Then, the cell lysates from the different HEK293 cells were immunoprecipitated with the anti-FLAG antibody. The immunoprecipitated proteins were immunoblotted with anti-FLAG and anti-FAM19A5 (3-2) antibodies.
As described in Example 2, all members of the LRRC4 protein family were capable of binding to FAM19A5 protein to varying degrees. Therefore, to compare the bindings domains, the amino acid sequences of the LRRC4B, LRRC4, and LRRC4C proteins were aligned. […] Therefore, to assess whether the corresponding positions of LRRC4 and LRRC4C were important in the binding of these proteins to FAM19A5 protein, cDNAs encoding either (i) LRRC4C protein fragment (amino acids 354-527 of SEQ ID NO: 3; SEQ ID NO: 66) or (ii) LRRC4 protein fragment (amino acids 353-527 of SEQ ID NO: 1; SEQ ID NO: 67) were constructed (see Table 7). HEK293 cells were transfected to express either of the protein fragments and then treated with recombinant FAM19A5 protein as described in Example 1. Then, the cell lysates from the different HEK293 cells were immunoprecipitated with the anti-FLAG antibody. The immunoprecipitated proteins were immunoblotted with anti-FLAG and anti-FAM19A5 (3-2) antibodies.
Target sequence in this assay (Q7Z5A7 44-132): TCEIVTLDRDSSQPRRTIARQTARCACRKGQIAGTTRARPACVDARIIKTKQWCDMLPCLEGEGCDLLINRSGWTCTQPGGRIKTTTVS
For B1, the “binding to FAM19A5 protein (co-immunoprecipitation)” value (“binding to FAM19A5 protein” for short) is recorded as “able to bind to the FAM19A5 protein with varying degree”.

As for B2, the “binding to FAM19A5 protein” value is reported as “able to bind to the FAM19A5 protein with varying degree”.

In the case of B3, the “binding to FAM19A5 protein” value is on record as “able to bind to the FAM19A5 protein with varying degree”.

On to B4, for which the “binding to FAM19A5 protein” value is “able to bind to the FAM19A5 protein with varying degree”.

For the molecule B5, the “binding to FAM19A5 protein” value is “able to bind to the FAM19A5 protein with varying degree”.

Consider B6, for which the “binding to FAM19A5 protein” value was “able to bind to the FAM19A5 protein with varying degree”.

The next test concerns the target T1, FAM19A5 protein. Briefly: competitive inhibition ELISA; competitor: coated LRRC4B(453-576)-hFc.
Conditions: not given
In general terms: In an ELISA, binding on a coated surface is turned into a signal by an enzyme label.
For B7, the Inhibition rate (%) was 50.3%.

As for B8, the Inhibition rate (%) is -0.4%.

For B9, the Inhibition rate (%) worked out at 22.2%.

As to B10, the Inhibition rate (%) amounted to 3.8%.

Turning to B11, the Inhibition rate (%) worked out at 27.2%.

B12: the Inhibition rate (%) is 56.2%.

Regarding B13, the Inhibition rate (%) was found to be 6.4%.

Turning to B14, the Inhibition rate (%) came to 11%.

As to B15, the Inhibition rate (%) is 7.9%.

Another test concerns the target T1, FAM19A5 protein. Briefly: competitive inhibition ELISA; competitor: coated LRRC4B(36-576)-hFc.
Conditions: not given
As to B7, the Inhibition rate (%) was found to be 73.4%.

For B8, the Inhibition rate (%) was determined as 3.9%.

Consider B9, for which the Inhibition rate (%) came out at 53.4%.

On to B10, for which the Inhibition rate (%) turned out to be 21.5%.

B11: the Inhibition rate (%) came out at 51.4%.

B12: the Inhibition rate (%) was found to be 73%.

For the molecule B13, the Inhibition rate (%) was 19.6%.

For B14, the Inhibition rate (%) turned out to be 17.9%.

Regarding B15, the Inhibition rate (%) stood at 26.8%.
